pKd: −log10 of the molar value.
How the values were obtained:
Test in all cases: MST; NT-647-NHS-labelled PP2A subunit at 20 nM as target, 12-point twofold dilution series of unlabelled ARPP as ligand; SEC buffer with 0.05% Tween-20; triplicate; single-site binding model
[1] = target: PP2A regulatory subunit B56γ
[2] = target: PP2A scaffolding subunit PR65α, full length (UniProt P30153)
[3] = target: PP2A regulatory subunit B56α
Chain of PP2A regulatory subunit B56α (Q15172 whole entry): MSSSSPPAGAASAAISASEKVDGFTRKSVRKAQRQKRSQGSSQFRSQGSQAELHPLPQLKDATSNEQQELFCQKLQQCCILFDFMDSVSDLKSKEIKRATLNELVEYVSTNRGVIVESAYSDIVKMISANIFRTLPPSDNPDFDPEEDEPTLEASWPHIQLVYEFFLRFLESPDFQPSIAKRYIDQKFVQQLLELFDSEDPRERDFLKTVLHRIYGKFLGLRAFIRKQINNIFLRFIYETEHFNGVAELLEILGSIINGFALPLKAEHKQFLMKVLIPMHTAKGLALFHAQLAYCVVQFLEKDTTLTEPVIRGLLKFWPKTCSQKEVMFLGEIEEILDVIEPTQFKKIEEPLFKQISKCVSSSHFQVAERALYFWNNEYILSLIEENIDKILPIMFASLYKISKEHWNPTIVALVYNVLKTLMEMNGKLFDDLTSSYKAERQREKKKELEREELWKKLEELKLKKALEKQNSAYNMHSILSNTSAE

Chain of PP2A scaffolding subunit PR65α, full length (P30153 whole entry): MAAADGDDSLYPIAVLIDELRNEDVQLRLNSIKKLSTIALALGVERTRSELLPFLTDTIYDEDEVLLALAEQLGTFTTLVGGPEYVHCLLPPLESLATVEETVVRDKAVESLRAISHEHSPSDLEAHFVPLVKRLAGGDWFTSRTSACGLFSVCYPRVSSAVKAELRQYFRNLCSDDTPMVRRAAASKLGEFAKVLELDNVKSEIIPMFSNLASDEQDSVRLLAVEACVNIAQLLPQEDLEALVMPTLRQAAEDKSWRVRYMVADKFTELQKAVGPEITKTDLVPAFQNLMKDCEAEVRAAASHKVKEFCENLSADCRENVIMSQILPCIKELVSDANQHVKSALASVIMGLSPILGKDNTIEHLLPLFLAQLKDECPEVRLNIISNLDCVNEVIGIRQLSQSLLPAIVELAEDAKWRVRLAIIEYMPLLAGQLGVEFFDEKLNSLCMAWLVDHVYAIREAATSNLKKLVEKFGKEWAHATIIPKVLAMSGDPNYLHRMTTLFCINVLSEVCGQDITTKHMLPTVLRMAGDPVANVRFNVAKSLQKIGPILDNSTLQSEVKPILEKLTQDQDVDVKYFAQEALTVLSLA
Chain of PP2A regulatory subunit B56γ (Q13362 whole entry): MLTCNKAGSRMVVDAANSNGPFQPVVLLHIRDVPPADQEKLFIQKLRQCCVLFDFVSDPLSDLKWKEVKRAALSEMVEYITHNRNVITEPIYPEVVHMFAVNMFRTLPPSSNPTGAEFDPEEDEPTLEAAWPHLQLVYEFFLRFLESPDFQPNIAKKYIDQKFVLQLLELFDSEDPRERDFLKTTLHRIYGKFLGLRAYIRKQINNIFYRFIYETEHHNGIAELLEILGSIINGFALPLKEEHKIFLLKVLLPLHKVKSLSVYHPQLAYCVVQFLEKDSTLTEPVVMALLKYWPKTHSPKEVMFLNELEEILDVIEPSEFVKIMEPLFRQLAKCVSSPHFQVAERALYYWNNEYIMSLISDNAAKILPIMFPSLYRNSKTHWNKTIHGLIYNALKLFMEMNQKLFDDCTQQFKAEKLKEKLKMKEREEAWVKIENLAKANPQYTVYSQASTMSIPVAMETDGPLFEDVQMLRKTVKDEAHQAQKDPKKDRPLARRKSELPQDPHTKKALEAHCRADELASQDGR

| Substance | pKd [1] | pKd [2] | pKd [3] |
| --- | --- | --- | --- |
| ARPP-16 (splice variant of ARPP-19), wild type (natural protein) | 3.15 | 5.27 | – |
| ARPP-16 (splice variant of ARPP-19), wild type (natural protein; other documents disagree on this pair) | – | – | 4.10 |
| ARPP-16 S46E phosphomimicking mutant (natural protein) | 3.36 | 6.00 | – |
| ARPP-16 S46E phosphomimicking mutant (natural protein; other documents disagree on this pair) | – | – | 3.96 |
| ARPP-16 S88E phosphomimicking mutant (natural protein) | 3.70 | 5.48 | – |
| ARPP-16 S88E phosphomimicking mutant (natural protein; other documents disagree on this pair) | – | – | 3.89 |

— article PMC8032985
